Results on one substance are retold here after patent US20240075152A1.

In assay [1] the target is GCN4-p2L variant (trimeric variant of GCN4 peptide with N-terminal NTA and C-terminal His2), assembled into hexagonal 3D crystals with Zn2+. The assay can be described thus: derived from the EDTA dissolution data and the hourglass volume (about 50%).
Assay [2] shares this target. The assay can be described thus: crystals dissolved with EDTA; peptide by UPLC, protein by fluorescence spectroscopy.

Regarding “Enhanced green fluorescent protein with an N-terminal His6-tag (EGFP)”, the coiled-coils for each protein guest within the hourglass section (coiled-coils per protein) in assay [1] was in the range of 30 to 35. Further, in assay [2], the coiled-coil units for each protein guest (coiled-coil units per protein) lay in the range of 60 to 70 and the ratio of peptide to protein cargo in the crystals (peptide : protein) is 200.
